Here are results for four molecules from patent US20190262327A1 (AstraZeneca / MedImmune, published 2019).

A word on the Kd: it is the free concentration of one partner at which half of the binding sites on the other are occupied at equilibrium, for simple one-to-one binding. One may read the IC50 as the concentration that gives 50% inhibition. High values mean weaker potency, low ones greater potency. The term koff denotes the first-order rate constant of dissociation. As usually defined, the kon is a measure of how fast the partners come together.

Assay [1] deals with T1, biotinylated synthetic human Amyloid beta 1-42 peptide (human, UniProt P05067 672-713, biotinylated (N-terminal biotin in Example 4)).
T1 construct: domain: Amyloid beta 1-42 peptide; Numbers 1-42 count on the Amyloid beta peptide, not on APP; also called biotinylated human Amyloid beta 1-42; N-terminal biotin Abeta 1-42
Nature of the assay: Surface Plasmon Resonance, purified scFv (group statement that sums up Table 5).

For assay [2], the target named is T1, biotinylated synthetic human Amyloid …. Nature of the assay: HTRF epitope competition; purified scFv titrated; competitor Abet0144-GL IgG1-TM. On the procedure:
(§1) Two thousand and twenty four scFv chosen at random from selection rounds 3 and 4 of the targeted mutagenesis approach described in section 1.2 were expressed in bacteria to produce unpurified periplasmic scFv.
(§2) One thousand six hundred and seventy two scFv, randomly selected from selection rounds 9 to 11, were screened in an epitope competition assay as described in section 1.3.
(§3) Where the assay was performed more than once, the absolute range of IC₅₀ values is provided.
Target sequence in this assay (P05067 672-713 limits assumed): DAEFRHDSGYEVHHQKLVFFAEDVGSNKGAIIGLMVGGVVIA

The target is the same in assay [3]. Put plainly: SPR (ProteOn); biotinylated peptide on streptavidin chip, scFv in solution; 1:1 Langmuir fit. On the procedure: (§4) These experiments were performed essentially as described by Karlsson et al. (Karlsson et al., 1991).
(§5) The chip surface was regenerated between cycles by a single 60 second injection of 10 mM Glycine pH 2.0 to remove scFv bound to the peptide.
(§6) Each scFv at 100-200 nM was sequentially passed over the peptide surface for a sufficient amount of time to observe sensorgrams that could be fitted to an appropriate binding model with confidence. An irrelevant scFv blank was subtracted from the main dataset to reduce the impact of any buffer artefacts or non-specific binding effects. An appropriate binding model was then fitted to the data.

Assay [4] shares this target. Nature of the assay: HTRF epitope competition; purified scFv titrated; competitor Abet0144-GL IgG1-TM; range of repeats. Here is the method:
as §1, §2, §3
A general note: TR-FRET usually uses a lanthanide donor and a delayed reading to cut background.
Target sequence in this assay (P05067 672-713 limits assumed): as above

Assay [5] shares this target. Put plainly: HTRF epitope competition: purified scFv titrated against the complex of biotinylated human Amyloid beta 1-42 and Abet0144-GL IgG1-TM [upper graph; the letter C stands below it].
Source text: as §1, §2

Assay [6] shares this target. Put plainly: SPR (ProteOn); biotinylated peptide on streptavidin chip, scFv in solution. On the procedure: as §4, §5, §6
Target sequence in this assay (P05067 672-713 limits assumed): as above
Assay [7] shares this target. Put plainly: HTRF epitope competition: purified scFv titrated against the complex of biotinylated human Amyloid beta 1-42 and Abet0144-GL IgG1-TM.
Source text: as §1, §2

Assay [8] deals with T2, synthetic human Amyloid beta 1-42 peptide (human, UniProt P05067 672-713).
T2 construct: domain: Amyloid beta 1-42 peptide; also called Abeta 1-42
Put plainly: SPR (BIAcore T-100); IgG captured on protein G, peptide 0.063-1024 nM in solution; 1:1 Langmuir fit. On the procedure:
The chip surface was regenerated between cycles by paired 40 second injections of 10 mM Glycine pH 2.0 to remove ligand and bound antibody. The test antibody was then reapplied for each peptide injection.
Blank reference flow-cell data were subtracted from each IgG dataset and a zero-concentration antibody-only buffer blank was double-reference subtracted from the main dataset. An appropriate binding model was then fitted simultaneously to the data from each analyte titration using the BIAevaluation software.
A general note: In SPR one partner is held on a chip, and binding of the other changes the refractive index at the surface.

For assay [9], the target named is T3, biotinylated human Amyloid beta 1-40 peptide (human, UniProt P05067 672-711, biotinylated).
T3 construct: domain: Amyloid beta 1-40 peptide
Put plainly: Surface plasmon resonance (BIAcore), antibody captured on protein G, single cycle with five peptide injections. Here is the method:
as §4
(§7) The interaction between each test IgG and each peptide was estimated using assays in which the antibody was non-covalently captured by a protein G surface that was itself amine linked to a proprietary CM5 chip. […] The chip surface was regenerated between cycles by paired 40 second injections of 10 mM Glycine pH 2.0 to remove ligand and bound antibody. The test antibody was then reapplied for each peptide injection cycle.
(§8) Blank reference flow-cell data were subtracted from each IgG dataset and a zero-concentration antibody-only buffer blank was double-reference subtracted from the main dataset.

Assay [10] has as its target T4, unlabelled murine Amyloid beta 1-40 peptide (murine, UniProt P12023 672-711).
T4 construct: domain: Amyloid beta 1-40 peptide
T4 peptide (looked up): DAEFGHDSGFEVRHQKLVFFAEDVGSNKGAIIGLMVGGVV
The description is as above. On the procedure: as §4, §7, §8

In assay [11] the target is T5, unlabelled murine Amyloid beta 1-42 peptide (murine, UniProt P12023 672-713).
T5 construct: domain: Amyloid beta 1-42 peptide
T5 peptide (looked up): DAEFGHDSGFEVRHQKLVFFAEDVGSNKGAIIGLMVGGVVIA
Put plainly: Surface plasmon resonance (BIAcore), antibody captured on protein G, single cycle with five peptide injections (64 to 1024 nM by paragraph 390). On the procedure:
as §4, §7, §8

Substitutions are numbered along the chain they refer to. Bounds are passed on as bounds.

B1: Abet0380 scFv (scFv, V domains shown, not shown: small tags and cut ends)
VH: EVQLLESGGGLVQPGGSLRLSCAASMGNFNYQTMWWVRQAPGRGLEWVSVIGKTNENIAYADSVKGRFTISRDNSKNTLYLQMNSLRAEDTAVYYCAREWMDHSRPYYYYGMDVWGQGTLVTVSS
VL: SYELTQPPSVSVSPGQTASITCSGHNLEDKFASWYQQKPGQSPVLVIYRDDKRPSGIPERFSASNSGHTATLTISGTQATDEADYYCSSQDTVTRVFGGGTKLTVL
notes: Purified scFv expressed in E. coli
As to B1, the Kd in assay [1] is < 0.25 nM. The IC50 in assay [2] came to 0.43 nM. In [3], this molecule yielded a Kd of 0.148 nM, a koff of 2.85e-05 s⁻¹ and an on-rate constant (kon) of 193000 M⁻¹ s⁻¹. The molecule further had a 50% inhibitory concentration (IC50) in assay [4] of 0.38 to 0.47 nM. Also, the “IC50 (read off the curve)” value in assay [5] was ~0.5 nM.

B2: Abet0377 scFv (scFv, V domains shown, not shown: small tags and cut ends)
VH: B1 VH with M26G, G27F, Y31E, M34L, R43K, K53V, T54G, N55T, E56K, S63T
VL: B1 VL with L27T, D29H, F31W, A32I, S64T
notes: as for B1
In assay [6], B2 gave a Kd of 0.154 nM, a koff of 3.02e-05 s⁻¹ and a kon of 196000 M⁻¹ s⁻¹. This molecule yielded an IC50 in assay [2] of 0.32 nM. The IC50 in [4] lay within 0.29 to 0.35 nM. Besides, the “IC50 (read off the curve)” value in assay [7] was ~0.3 nM.

B3: Abet0369 scFv (scFv, V domains shown, not shown: small tags and cut ends)
VH: EVQLLESGGGLVQPGGSLRLSCAASSFQISKNTMWWVRRAPGKGLEWVSVIGKDETRFNYADSVKGRFTISRDNSKNTLYLQMNSLRAEDTAVYYCAREWMDHSRPYYYYGMDVWGQGTLVTVSS
VL: B1 VL with E3G, H25R, L27I, E28G, K30S, F31W, A32V, S33A
notes: as for B1
In assay [6], B3 yielded a Kd of 0.133 nM, a koff of 4.34e-05 s⁻¹ and an association rate constant (kon) of 327000 M⁻¹ s⁻¹. The same molecule displayed a half-maximal inhibitory concentration (IC50) in assay [2] of 0.36 nM. In addition, the IC50 in [4] is 0.3 to 0.41 nM. The “IC50 (read off the curve)” value in assay [7] was ~0.4 nM.

B4: Abet0380-GL (germlined) IgG1-TM (antibody, V domains shown)
VH: B1 VH with R43K
VL: B1 VL with T80M
notes: also called Abet0380-GL IgG1-TM; Abet0380-GL IgG1TM
B4: in assay [8], the Kd stood at 0.322 nM, the koff stood at 0.000307 s⁻¹ and the kon turned out to be 952000 M⁻¹ s⁻¹. Moreover, the binding result in [9] is given as “no binding”. Also, the binding result in assay [10] is reported as “no binding”. The binding result in assay [11] is “binds”.
